# Results from publication PMC10394066, “Polymorphic amyloid nanostructures of hormone peptides involved in glucose homeostasis display reversible amyloid formation” (Nature Communications, 2023).
# Molecular target: the molecule itself
# Test: FTIR; 6 mM peptide in water, pH adjusted from 7.2 to 4.2; amide I band 1625–1630 cm^−1; bio-ATR cell
protein,measurement,value
"LFIEWL (aggregation-prone hexapeptide segment of the non-mammalian exendin-4 (also of exendin-3); free termini; also called LFIEWL (exendin-4); source: synthetic peptide (flow solid-phase synthesis, Fmoc/tBu; RP-HPLC purified)) [APR^ex-4 hexapeptide LFIEWL (aggregation-prone region of exendin-4)]",binding result,binds
